Where two headings read alike, the source gives them in different places. Bridge positions count the residues as written; N and C are the ends. Square brackets hold non-standard residues; d marks the D form. * marks the point of attachment. Met(O2) = CS(=O)(=O)CC[C@H](N)C(=O)O; Hyp = O=C(O)[C@@H]1C[C@@H](O)CN1; Cit = NC(=O)NCCC[C@H](N)C(=O)O; Orn = NCCC[C@H](N)C(=O)O; Dab = NCC[C@H](N)C(=O)O; NHcPr = C1CC1N*
Assays:
[1] = target: T1, human melanocortin-4 receptor (recombinant hMC4-R) (human, UniProt P32245 1-332); assay: cell-based or functional assay
[2] = target: T1, human melanocortin-4 receptor …; assay: cell-based or functional assay; remark: listed apart in the source
[3] = target: T1, human melanocortin-4 receptor …; assay: competition with labelled NDP-α-MSH ([I125] or Eu), hMC4-R HEK-293 membranes
Description: After incubation for 60 minutes at 37° C., the assay mixture was filtered and the membranes washed three times with ice-cold buffer. Filters were dried and counted in a gamma counter for bound radioactivity. […] Maximal specific binding (100%) was defined as the difference in radioactivity (cpm) bound to cell membranes in the absence and presence of 1 μM NDP-α-MSH. […] Ki values for test peptides of the present invention were determined using Graph-Pad Prism® curve-fitting software.
After incubation for 90 minutes at 37° C., the reaction was stopped by filtration over AcroWell 96-well filter plates (Pall Life Sciences). The filter plates were washed 4 times with 200 μL of ice-cold phosphate-buffered saline. DELFIA Enhancement solution (PerkinElmer Life Sciences) was added to each well. The plates were incubated on a shaker for 15 minutes and read at 340 nm excitation and 615 nm emission wavelengths. Each assay was conducted in duplicate and mean values were utilized. Ki values were determined by curve-fitting with Graph-Pad Prism® software using a one-site fixed-slope competition binding model.

T1 sequence (P32245 whole entry): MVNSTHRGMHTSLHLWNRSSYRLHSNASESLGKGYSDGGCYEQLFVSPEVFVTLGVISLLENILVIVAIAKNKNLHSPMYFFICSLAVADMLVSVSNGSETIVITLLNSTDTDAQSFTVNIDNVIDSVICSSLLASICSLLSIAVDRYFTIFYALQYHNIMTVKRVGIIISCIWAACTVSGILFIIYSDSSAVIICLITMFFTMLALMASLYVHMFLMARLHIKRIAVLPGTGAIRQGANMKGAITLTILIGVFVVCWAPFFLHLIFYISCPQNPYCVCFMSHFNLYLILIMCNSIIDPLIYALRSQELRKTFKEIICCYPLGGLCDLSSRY

Q: With Ac-RE[Dab](Ac)[dF]RW[Orn]-NH2 (lactam 2-7) [Peptide No. 18: Ac-Arg-cyclo(Glu-Dab(Acetyl)-D-Phe-Arg-Trp-Orn)-NH2] as the binder, how does the “Emax (%), cAMP” value [1] read?
A: 75%

Q: For Ac-REQ[dF]RW[Orn]-NH2 (lactam 2-7) [Peptide No. 12: Ac-Arg-cyclo(Glu-Gln-D-Phe-Arg-Trp-Orn)-NH2], which “Emax (%), cAMP” value [1] is on record?
A: 96%

Q: Ac-REQ[dF]RW[Orn]-OH (lactam 2-7) [Peptide No. 11: Ac-Arg-cyclo(Glu-Gln-D-Phe-Arg-Trp-Orn)-OH] was tested. Which “Emax (%), cAMP” value [1] did it give?
A: 81%

Q: For Ac-RE[Hyp][dF]RW[Orn]-NH2 (lactam 2-7) [Peptide No. 14: Ac-Arg-cyclo(Glu-Hyp-D-Phe-Arg-Trp-Orn)-NH2], which “Emax (%), cAMP” value [1] is on record?
A: 104%

Q: Which “Ec50 (nM), cAMP” value [1] does the source give for Ac-RE[Met(O2)][dF]RW[Orn]-NH2 (lactam 2-7) [Peptide No. 13: Ac-Arg-cyclo(Glu-Met(O2)-D-Phe-Arg-Trp-Orn)-NH2] here?
A: 5 nM

Q: What about the “Emax (%), cAMP” value [1] of the same binder?
A: 71%

Q: With Ac-RER[dF]RW[Orn]-OH (lactam 2-7) [Peptide No. 9: Ac-Arg-cyclo(Glu-Arg-D-Phe-Arg-Trp-Orn)-OH] as the binder, how does the “Emax (%), cAMP” value [1] read?
A: 82%

Q: How did the “Emax (%), cAMP” value [1] turn out when Ac-RER[dF]RW[Orn]-NH2 (lactam 2-7) [Peptide No. 10: Ac-Arg-cyclo(Glu-Arg-D-Phe-Arg-Trp-Orn)-NH2] was run?
A: 98%

B1: Asp...Lys analog of peptide No. 15: Ac-Arg-cyclo(Asp-Cit-D-Phe-Arg-Trp-Lys)-NH2 (peptide)
peptide: RDXFRWK
modifications: N-terminal acetyl; Cit (citrulline) at 3; D-Phe at 4; side-chain lactam Asp2-Lys7; C-terminal amide (-NH2)
Q: Which “Emax (%), cAMP” value [1] does the source give for B1 here?
A: 69%

Q: With Ac-RE[Dab][dF]RW[Orn]-OH (lactam 2-7) [Peptide No. 5: Ac-Arg-cyclo(Glu-Dab-D-Phe-Arg-Trp-Orn)-OH] as the binder, how does the “Emax (%), cAMP” value [1] read?
A: 94%

Q: Ac-RD[Orn][dF]RWK-NH2 (lactam 2-7) [Asp...Lys analog of peptide No. 8: Ac-Arg-cyclo(Asp-Orn-D-Phe-Arg-Trp-Lys)-NH2] was tested. Which “Ec50 (nM), cAMP” value [1] did it give?
A: 0.8 nM

Q: And the “Emax (%), cAMP” value [1]?
A: 79%

Q: Ac-RE[Orn][dF]RW[Orn]-OH (lactam 2-7) [Peptide No. 7: Ac-Arg-cyclo(Glu-Orn-D-Phe-Arg-Trp-Orn)-OH] was tested. Which “Emax (%), cAMP” value [1] did it give?
A: 92%

Q: Ac-R[Orn][Dab][dF]RWE-OH (lactam 2-7) [Peptide No. 42: Ac-Arg-cyclo(Orn-Dab-D-Phe-Arg-Trp-Glu)-OH] was tested. Which “Emax (%), cAMP” value [2] did it give?
A: 100%

B2: Peptide No. 1: Ac-Nle-cyclo(Glu-His-D-Phe-Arg-Trp-Orn)-OH (peptide)
peptide: XEHFRWX
modifications: N-terminal acetyl; Nle at 1; D-Phe at 4; Orn at 7; side-chain lactam Glu2-Orn7; C-terminal -OH
Q: How did the “Ec50 (nM), cAMP” value [1] turn out when B2 was run?
A: 0.5 nM

Q: And the “Emax (%), cAMP” value [1]?
A: 97%

Q: For Ac-RD[Orn](Ac)[dF]RWK-NH2 (lactam 2-7) [Asp...Lys analog of peptide No. 33: Ac-Arg-cyclo(Asp-Orn(Acetyl)-D-Phe-Arg-Trp-Lys)-NH2], which “Ec50 (nM), cAMP” value [1] is on record?
A: 532 nM

Q: What about the “Emax (%), cAMP” value [1] of the same binder?
A: 62%

Q: How did the “Emax (%), cAMP” value [2] turn out when Ac-[dR][Orn]Q[dF]RWE-NH2 (lactam 2-7) [Peptide No. 45: Ac-D-Arg-cyclo(Orn-Gln-D-Phe-Arg-Trp-Glu)-NH2] was run?
A: 89%

Q: Which “Ec50 (nM), cAMP” value [1] does the source give for Ac-RD[Dab][dF]RWK-NH2 (lactam 2-7) [Asp...Lys analog of peptides No. 6 and No. 43: Ac-Arg-cyclo(Asp-Dab-D-Phe-Arg-Trp-Lys)-NH2] here?
A: 0.3 nM

Q: What about the “Emax (%), cAMP” value [1] of the same binder?
A: 91%

Q: And the “Ec50 (nM), cAMP” value [2]?
A: 0.3 nM

Q: What about the “Emax (%), cAMP” value [2] of the same binder?
A: 91%

Q: Ac-RE[Cit][dF]RW[Orn]-NH2 (lactam 2-7) [Peptide No. 15: Ac-Arg-cyclo(Glu-Cit-D-Phe-Arg-Trp-Orn)-NH2] was tested. Which “Emax (%), cAMP” value [1] did it give?
A: 87%

Q: With Ac-RD[Dab][dF]RWK-OH (lactam 2-7) [Asp...Lys analog of peptides No. 5 and No. 42: Ac-Arg-cyclo(Asp-Dab-D-Phe-Arg-Trp-Lys)-OH] as the binder, how does the “Ec50 (nM), cAMP” value [1] read?
A: 4 nM

Q: And the “Emax (%), cAMP” value [1]?
A: 91%

Q: And the “Ec50 (nM), cAMP” value [2]?
A: 4 nM

Q: What about the “Emax (%), cAMP” value [2] of the same binder?
A: 91%

Q: With Ac-RDH[dF]RWK-OH (lactam 2-7) [Asp...Lys analog of peptides No. 3 and No. 37: Ac-Arg-cyclo(Asp-His-D-Phe-Arg-Trp-Lys)-OH] as the binder, how does the “Emax (%), cAMP” value [1] read?
A: 91%

Q: And the “Emax (%), cAMP” value [2]?
A: 91%

B3: Asp...Lys analog of peptide No. 19: Ac-Arg-cyclo(Asp-Gln-D-Phe-Arg-Trp-Lys)-NH-cycProp (peptide)
peptide: Ac-RDQ[dF]RWK-NHcPr
modifications: lactam 2-7
notes: also called Peptide Structure (Asp...Lys) in the row of No. 19
Q: Which “Ec50 (nM), cAMP” value [1] does the source give for B3 here?
A: 9 nM

Q: What about the “Emax (%), cAMP” value [1] of the same binder?
A: 79%

Q: What about the Ki [3] of the same binder?
A: 64 nM

B4: Asp...Lys analog of peptide No. 11: Ac-Arg-cyclo(Asp-Gln-D-Phe-Arg-Trp-Lys)-OH (peptide)
peptide: Ac-RDQ[dF]RWK-OH
modifications: lactam 2-7
notes: also called Peptide Structure (Asp...Lys) in the row of No. 11
Q: B4 was tested. Which “Ec50 (nM), cAMP” value [1] did it give?
A: 19 nM

Q: And the “Emax (%), cAMP” value [1]?
A: 80%

Q: What about the Ki [3] of the same binder?
A: 115 nM

B5: Asp...Lys analog of peptide No. 16: Ac-Arg-cyclo(Asp-Lys-D-Phe-Arg-Trp-Lys)-NH2 (peptide)
peptide: Ac-RDK[dF]RWK-NH2
modifications: lactam 2-7
notes: also called Peptide Structure (Asp...Lys) in the row of No. 16
Q: How did the “Emax (%), cAMP” value [1] turn out when B5 was run?
A: 97%

Q: What about the Ki [3] of the same binder?
A: 30 nM

Q: Ac-RDQ[dF]RWK-NH2 (lactam 2-7) [Asp...Lys analog of peptides No. 12 and No. 44: Ac-Arg-cyclo(Asp-Gln-D-Phe-Arg-Trp-Lys)-NH2] was tested. Which “Ec50 (nM), cAMP” value [1] did it give?
A: 17 nM

Q: What about the “Emax (%), cAMP” value [1] of the same binder?
A: 85%

Q: And the “Ec50 (nM), cAMP” value [2]?
A: 17 nM

Q: And the “Emax (%), cAMP” value [2]?
A: 85%

B6: Asp...Lys analog of peptide No. 14: Ac-Arg-cyclo(Asp-Hyp-D-Phe-Arg-Trp-Lys)-NH2 (peptide)
peptide: Ac-RD[Hyp][dF]RWK-NH2
modifications: lactam 2-7
notes: also called Peptide Structure (Asp...Lys) in the row of No. 14
Q: For B6, which “Ec50 (nM), cAMP” value [1] is on record?
A: 27 nM

Q: And the “Emax (%), cAMP” value [1]?
A: 39%

Q: What about the Ki [3] of the same binder?
A: 4 nM

Q: With Ac-RDR[dF]RWK-OH (lactam 2-7) [Asp...Lys analog of peptide No. 9: Ac-Arg-cyclo(Asp-Arg-D-Phe-Arg-Trp-Lys)-OH] as the binder, how does the “Emax (%), cAMP” value [1] read?
A: 75%

Q: Ac-RDR[dF]RWK-NH2 (lactam 2-7) [Asp...Lys analog of peptide No. 10: Ac-Arg-cyclo(Asp-Arg-D-Phe-Arg-Trp-Lys)-NH2] was tested. Which “Emax (%), cAMP” value [1] did it give?
A: 68%

B7: Asp...Lys analog of peptide No. 13: Ac-Arg-cyclo(Asp-Met(O2)-D-Phe-Arg-Trp-Lys)-NH2 (peptide)
peptide: Ac-RD[Met(O2)][dF]RWK-NH2
modifications: lactam 2-7
notes: also called Peptide Structure (Asp...Lys) in the row of No. 13
Q: What does the source list for B7?
A: Ec50 (nM), cAMP [1]: 35 nM; Emax (%), cAMP [1]: 29%; Ki [3]: 7 nM

Q: Ac-REQ[dF]RW[Orn]-NHcPr (lactam 2-7) [Peptide No. 19: Ac-Arg-cyclo(Glu-Gln-D-Phe-Arg-Trp-Orn)-NH-cycProp] was tested. Which “Emax (%), cAMP” value [1] did it give?
A: 91%

Q: What does the source list for Ac-RE[Dab][dF]RW[Orn]-NH2 (lactam 2-7) [Peptide No. 6: Ac-Arg-cyclo(Glu-Dab-D-Phe-Arg-Trp-Orn)-NH2]?
A: Ec50 (nM), cAMP [1]: 0.3 nM; Emax (%), cAMP [1]: 94%

Q: With Ac-RD[Orn][dF]RWK-OH (lactam 2-7) [Asp...Lys analog of peptide No. 7: Ac-Arg-cyclo(Asp-Orn-D-Phe-Arg-Trp-Lys)-OH] as the binder, how does the “Ec50 (nM), cAMP” value [1] read?
A: 12 nM

Q: What about the “Emax (%), cAMP” value [1] of the same binder?
A: 84%

Q: For Ac-RDH[dF]RWK-NH2 (lactam 2-7) [Asp...Lys analog of peptides No. 4 and No. 38: Ac-Arg-cyclo(Asp-His-D-Phe-Arg-Trp-Lys)-NH2], which “Emax (%), cAMP” value [1] is on record?
A: 83%

Q: What about the “Emax (%), cAMP” value [2] of the same binder?
A: 83%

B8: Asp...Lys analog of peptide No. 18: Ac-Arg-cyclo(Asp-Dab(Acetyl)-D-Phe-Arg-Trp-Lys)-NH2 (peptide)
peptide: Ac-RD[Dab](Ac)[dF]RWK-NH2
modifications: lactam 2-7
SMILES: CC(=O)NCC[C@@H]1NC(=O)[C@@H](NC(=O)[C@H](CCCNC(=N)N)NC(C)=O)CC(=O)NCCCC[C@@H](C(N)=O)NC(=O)[C@H](Cc2c[nH]c3ccccc23)NC(=O)[C@H](CCCNC(=N)N)NC(=O)[C@@H](Cc2ccccc2)NC1=O
Q: How did the “Emax (%), cAMP” value [1] turn out when B8 was run?
A: 69%

Q: Which “Emax (%), cAMP” value [2] does the source give for Ac-[dR]DH[dF]RWK-NH2 (lactam 2-7) [Asp...Lys analog of peptide No. 39: Ac-D-Arg-cyclo(Asp-His-D-Phe-Arg-Trp-Lys)-NH2] here?
A: 89%

Reference: patent publication US20120077957A1 (PALATIN TECHNOLOGIES, published 2012)
